Earlier results in article PMC4193333.

Biological target: BK channel alpha subunit (UniProt Q12791)
Chain of UniProt Q12791 (Q12791 whole entry): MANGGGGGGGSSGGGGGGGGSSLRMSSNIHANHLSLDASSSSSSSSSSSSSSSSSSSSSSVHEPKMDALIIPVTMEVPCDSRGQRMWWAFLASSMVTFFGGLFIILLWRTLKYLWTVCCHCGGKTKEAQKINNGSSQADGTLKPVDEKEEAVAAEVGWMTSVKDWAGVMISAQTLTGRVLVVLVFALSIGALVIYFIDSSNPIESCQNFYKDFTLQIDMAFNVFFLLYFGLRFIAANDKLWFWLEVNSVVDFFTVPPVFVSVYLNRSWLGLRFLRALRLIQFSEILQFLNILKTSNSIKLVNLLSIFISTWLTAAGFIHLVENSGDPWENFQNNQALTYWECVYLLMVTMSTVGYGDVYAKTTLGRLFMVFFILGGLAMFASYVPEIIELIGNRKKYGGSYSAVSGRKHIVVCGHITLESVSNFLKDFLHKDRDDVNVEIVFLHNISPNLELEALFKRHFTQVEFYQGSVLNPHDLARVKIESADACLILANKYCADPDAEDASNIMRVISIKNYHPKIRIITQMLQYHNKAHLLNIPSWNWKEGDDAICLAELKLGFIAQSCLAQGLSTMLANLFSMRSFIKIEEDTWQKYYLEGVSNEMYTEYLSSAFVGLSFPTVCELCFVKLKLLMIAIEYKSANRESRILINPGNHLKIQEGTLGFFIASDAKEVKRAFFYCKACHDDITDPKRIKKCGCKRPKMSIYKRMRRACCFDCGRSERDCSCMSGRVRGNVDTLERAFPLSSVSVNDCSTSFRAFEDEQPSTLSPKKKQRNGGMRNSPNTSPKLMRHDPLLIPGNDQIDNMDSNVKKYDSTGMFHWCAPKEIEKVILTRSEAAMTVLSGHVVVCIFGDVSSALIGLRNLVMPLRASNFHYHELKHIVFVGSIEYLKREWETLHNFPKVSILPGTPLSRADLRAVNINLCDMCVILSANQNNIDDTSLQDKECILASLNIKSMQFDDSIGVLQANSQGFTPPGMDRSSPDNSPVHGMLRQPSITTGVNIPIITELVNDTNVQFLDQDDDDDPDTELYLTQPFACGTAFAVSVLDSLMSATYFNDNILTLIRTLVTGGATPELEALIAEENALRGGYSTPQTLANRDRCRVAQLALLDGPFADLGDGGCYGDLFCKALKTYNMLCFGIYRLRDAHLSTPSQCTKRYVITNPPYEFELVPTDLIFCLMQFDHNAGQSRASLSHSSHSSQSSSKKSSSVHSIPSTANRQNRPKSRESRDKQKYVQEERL

Question: Which Kd does the source give for “Iberiotoxin (IbTX) (from UniProt P24663)” here?
Answer: 1.5 nM
